Assay results: PMC5473807, “Distribution and kinetics of the Kv1.3-blocking peptide HsTX1[R14A] in experimental rats” (Scientific Reports, 2017)
Where two headings read alike, the source gives them in different places.

Test: In vivo biodistribution by organ and tissue extraction
Set-up: species or system male Wistar rats
Conditions: male, Wistar, total radioactivity, rat; for SUV at 48 h / tissue uptake dose at 48 h: 2880 min p.i.; for SUV at 1 h / tissue uptake dose at 1 h: 60 min p.i.; for tissue uptake dose at 5 min / SUV at 5 min: 5 min p.i.; for dose excreted at 24 h: kidney and urine, read-out: renal elimination
Experimental: The present study includes data obtained from a total of 50 animals. Four animals (body weight 227 ± 10 g) for each time point were injected intravenously into a tail vein or subcutaneously with approximately 0.3 MBq ([…]) [^64Cu]Cu-NOTA-HsTX1[R14A] conjugate in 0.5 mL electrolyte solution E-153 (Serumwerk Bernburg, Germany). Animals were euthanised at 5, 60, 240, 1440 and 2880 min post-injection. Blood and the major organs were collected, weighed, and counted in a cross-calibrated γ-counter (Isomed 1000, Isomed GmbH, Dresden) and Wallac WIZARD Automatic Gamma Counter (PerkinElmer, Germany). The radioactivity of the tissue samples was decay-corrected and calibrated by comparing the counts in tissue with the counts in aliquots of the injected radiotracer that had been measured in the γ-counter at the same time. The activity in the selected organs was expressed as percent-injected dose per organ (% ID) and the activity concentration in tissues and organs as standardised uptake value (SUV). Values are quoted as mean ± standard error of mean (SEM) for each group of four animals.

[1] = femur, sc, 0.3 MBq, s.c., mean ± SD, n=4, read-out: Femur SUV
[2] = femur, sc, 0.3 MBq, s.c., mean ± SD, n=4, read-out: Femur activity amount
[3] = heart, iv, 0.3 MBq, i.v., mean ± SD, n=4, read-out: Heart activity amount
[4] = heart, iv, i.v., mean ± SD, n=4, read-out: Heart SUV
[5] = heart, sc, 0.3 MBq, s.c., mean ± SD, n=4, read-out: Heart activity amount
[6] = heart, sc, s.c., mean ± SD, n=4, read-out: Heart SUV
[7] = intestine, iv, 0.3 MBq, i.v., mean ± SD, n=4, read-out: Intestine activity amount
[8] = intestine, sc, 0.3 MBq, s.c., mean ± SD, n=4, read-out: Intestine activity amount
[9] = kidneys, iv, 0.3 MBq, i.v., mean ± SD, n=4, read-out: Kidneys SUV
[10] = kidneys, iv, 0.3 MBq, i.v., mean ± SD, n=4, read-out: Kidneys activity amount
[11] = kidneys, sc, 0.3 MBq, s.c., mean ± SD, n=4, read-out: Kidneys SUV
[12] = kidneys, sc, 0.3 MBq, s.c., mean ± SD, n=4, read-out: Kidneys activity amount
[13] = liver, iv, 0.3 MBq, i.v., mean ± SD, n=4, read-out: Liver SUV
[14] = liver, iv, 0.3 MBq, i.v., mean ± SD, n=4, read-out: Liver activity amount
[15] = liver, sc, 0.3 MBq, s.c., mean ± SD, n=4, read-out: Liver SUV

`CSCC[C@@H]1NC(=O)[C@@H]2CSSC[C@H](NC(=O)[C@H](CO)NC(=O)[C@H](C)NC(=O)COCCOCCNC(=O)CN3CCN(CC(=O)O)CCN(CC(=O)O)CC3)C(=O)N[C@@H](CCCNC(=N)N)C(=O)N[C@@H]([C@@H](C)O)C(=O)N3CCC[C@H]3C(=O)N[C@@H](CCCCN)C(=O)N[C@@H](CC(=O)O)C(=O)N[C@H]3CSSC[C@H](NC(=O)[C@H](CCCCN)NC(=O)[C@H](CCCNC(=N)N)NC(=O)[C@H](CC(N)=O)NC1=O)C(=O)N[C@@H](CCCCN)C(=O)N[C@H]1CSSC[C@H](NC(=O)[C@@H]4CCCN4C(=O)[C@H](CC(=O)O)NC(=O)[C@H](C)NC3=O)C(=O)N[C@@H](C)C(=O)N[C@@H](CCCCN)C(=O)N[C@@H](CCC(=O)O)C(=O)N[C@@H]([C@@H](C)O)C(=O)NCC(=O)N[C@@H](CSSC[C@@H](C(N)=O)NC(=O)[C@H](CCCNC(=N)N)NC(=O)[C@H](CC(N)=O)NC1=O)C(=O)N1CCC[C@H]1C(=O)N[C@@H](Cc1ccc(O)cc1)C(=O)NCC(=O)N[C@@H](CCCCN)C(=O)N2` [[^64Cu]Cu-NOTA-HsTX1[R14A], metal not drawn] gave an SUV at 48 h (femur, iv, 0.3 MBq, i.v., mean ± SD, n=4, read-out: Femur SUV) of 0.39 ± 0.02 SUV, a tissue uptake dose at 48 h (femur, iv, 0.3 MBq, i.v., mean ± SD, n=4, read-out: Femur activity amount) of 0.23 ± 0.01 %ID and an SUV at 1 h [1] of 1.25 ± 0.07 SUV. The tissue uptake dose at 1 h [2] was 0.82 ± 0.04 %ID, the SUV at 4 h (femur, sc, 0.3 MBq, s.c., 240 min p.i., mean ± SD, n=4, read-out: Femur SUV) was 0.92 ± 0.08 SUV and the tissue uptake dose at 4 h (femur, sc, 0.3 MBq, s.c., 240 min p.i., mean ± SD, n=4, read-out: Femur activity amount) was 0.64 ± 0.02 %ID. It also gave an SUV at 24 h (femur, sc, 0.3 MBq, s.c., 1440 min p.i., mean ± SD, n=4, read-out: Femur SUV) of 0.47 ± 0.02 SUV, a tissue uptake dose at 24 h (femur, sc, 0.3 MBq, s.c., 1440 min p.i., mean ± SD, n=4, read-out: Femur activity amount) of 0.34 ± 0.01 %ID and an SUV at 48 h [1] of 0.34 ± 0.02 SUV. It also gave a tissue uptake dose at 48 h [2] of 0.19 ± 0.02 %ID, a tissue uptake dose at 5 min [3] of 0.33 ± 0.04 %ID and a tissue uptake dose at 1 h (heart, iv, 0.3 MBq, i.v., mean ± SD, n=8, read-out: Heart activity amount) of 0.21 ± 0.06 %ID. It also gave a tissue uptake dose at 4 h (heart, iv, 0.3 MBq, i.v., 240 min p.i., mean ± SD, n=4, read-out: Heart activity amount) of 0.19 ± 0.03 %ID, a tissue uptake dose at 24 h (heart, iv, 0.3 MBq, i.v., 1440 min p.i., mean ± SD, n=8, read-out: Heart activity amount) of 0.23 ± 0.02 %ID and a tissue uptake dose at 48 h [3] of 0.27 ± 0.04 %ID. For the same molecule, the SUV at 5 min [4] was 1.04 ± 0.14 SUV, the SUV at 1 h (heart, iv, i.v., mean ± SD, n=8, read-out: Heart SUV) was 0.53 ± 0.08 SUV and the SUV at 4 h (heart, iv, i.v., 240 min p.i., mean ± SD, n=4, read-out: Heart SUV) was 0.4 ± 0.07 SUV. It also gave an SUV at 24 h (heart, iv, i.v., 1440 min p.i., mean ± SD, n=8, read-out: Heart SUV) of 0.62 ± 0.07 SUV, an SUV at 48 h [4] of 0.64 ± 0.06 SUV and a tissue uptake dose at 1 h [5] of 0.32 ± 0.02 %ID. It also gave a tissue uptake dose at 4 h (heart, sc, 0.3 MBq, s.c., 240 min p.i., mean ± SD, n=4, read-out: Heart activity amount) of 0.18 ± 0.03 %ID, a tissue uptake dose at 24 h (heart, sc, 0.3 MBq, s.c., 1440 min p.i., mean ± SD, n=4, read-out: Heart activity amount) of 0.23 ± 0.01 %ID and a tissue uptake dose at 48 h [5] of 0.22 ± 0.01 %ID. The SUV at 1 h [6] was 0.7 ± 0.03 SUV, the SUV at 4 h (heart, sc, s.c., 240 min p.i., mean ± SD, n=4, read-out: Heart SUV) was 0.41 ± 0.06 SUV and the SUV at 24 h (heart, sc, s.c., 1440 min p.i., mean ± SD, n=4, read-out: Heart SUV) was 0.53 ± 0.02 SUV. The SUV at 48 h [6] was 0.57 ± 0.04 SUV, the tissue uptake dose at 5 min [7] was 3.59 ± 2.4 %ID and the tissue uptake dose at 1 h (intestine, iv, 0.3 MBq, i.v., mean ± SD, n=8, read-out: Intestine activity amount) was 5.3 ± 2.31 %ID. The tissue uptake dose at 4 h (intestine, iv, 0.3 MBq, i.v., 240 min p.i., mean ± SD, n=4, read-out: Intestine activity amount) was 4.61 ± 1.84 %ID, the tissue uptake dose at 24 h (intestine, iv, 0.3 MBq, i.v., 1440 min p.i., mean ± SD, n=8, read-out: Intestine activity amount) was 16.5 ± 2.32 %ID and the tissue uptake dose at 48 h [7] was 8.27 ± 1.01 %ID. For the same molecule, the tissue uptake dose at 1 h [8] was 7.85 ± 3.82 %ID, the tissue uptake dose at 4 h (intestine, sc, 0.3 MBq, s.c., 240 min p.i., mean ± SD, n=4, read-out: Intestine activity amount) was 4.65 ± 1.73 %ID and the tissue uptake dose at 24 h (intestine, sc, 0.3 MBq, s.c., 1440 min p.i., mean ± SD, n=4, read-out: Intestine activity amount) was 19.3 ± 1.35 %ID. The tissue uptake dose at 48 h [8] was 8.16 ± 1.02 %ID, the dose excreted at 24 h (iv, 0.3 MBq, i.v., one day after injection) was 48 ± 3% and the dose excreted at 24 h (sc, 0.3 MBq, s.c., one day after injection) was 51 ± 2%. The SUV at 5 min [9] was 35.1 ± 6.82 SUV, the tissue uptake dose at 5 min [10] was 23.9 ± 3.93 %ID and the SUV at 1 h (kidneys, iv, 0.3 MBq, i.v., mean ± SD, n=8, read-out: Kidneys SUV) was 78.4 ± 13.6 SUV. For the same molecule, the tissue uptake dose at 1 h (kidneys, iv, 0.3 MBq, i.v., mean ± SD, n=8, read-out: Kidneys activity amount) was 61.6 ± 4.21 %ID, the SUV at 4 h (kidneys, iv, 0.3 MBq, i.v., 240 min p.i., mean ± SD, n=4, read-out: Kidneys SUV) was 68.4 ± 4.28 SUV and the tissue uptake dose at 4 h (kidneys, iv, 0.3 MBq, i.v., 240 min p.i., mean ± SD, n=4, read-out: Kidneys activity amount) was 63.1 ± 0.97 %ID. For the same molecule, the SUV at 24 h (kidneys, iv, 0.3 MBq, i.v., 1440 min p.i., mean ± SD, n=8, read-out: Kidneys SUV) was 18 ± 5.32 SUV, the tissue uptake dose at 24 h (kidneys, iv, 0.3 MBq, i.v., 1440 min p.i., mean ± SD, n=8, read-out: Kidneys activity amount) was 14.2 ± 2.04 %ID and the SUV at 48 h [9] was 6.37 ± 0.59 SUV. The tissue uptake dose at 48 h [10] was 6.19 ± 0.49 %ID, the SUV at 1 h [11] was 58.1 ± 5.55 SUV and the tissue uptake dose at 1 h [12] was 53.3 ± 4.9 %ID. For the same molecule, the SUV at 4 h (kidneys, sc, 0.3 MBq, s.c., 240 min p.i., mean ± SD, n=4, read-out: Kidneys SUV) was 70.2 ± 4.14 SUV, the tissue uptake dose at 4 h (kidneys, sc, 0.3 MBq, s.c., 240 min p.i., mean ± SD, n=4, read-out: Kidneys activity amount) was 62.5 ± 2.36 %ID and the SUV at 24 h (kidneys, sc, 0.3 MBq, s.c., 1440 min p.i., mean ± SD, n=4, read-out: Kidneys SUV) was 14.4 ± 1.32 SUV. It also gave a tissue uptake dose at 24 h (kidneys, sc, 0.3 MBq, s.c., 1440 min p.i., mean ± SD, n=4, read-out: Kidneys activity amount) of 13.6 ± 1.1 %ID, an SUV at 48 h [11] of 5.98 ± 1.08 SUV and a tissue uptake dose at 48 h [12] of 4.95 ± 0.49 %ID. For the same molecule, the tissue uptake dose at 4 h (liver and intestine, iv, 0.3 MBq, i.v., 4 h, read-out: activity in the liver and intestine) was 12 ± 3 %ID, the tissue uptake dose at 24 h (liver and intestine, iv, 0.3 MBq, i.v., one day after injection, read-out: hepatobiliary elimination, maximum) was 31 ± 3 %ID and the tissue uptake dose at 4 h (liver and intestine, sc, 0.3 MBq, s.c., 4 h, read-out: activity in the liver and intestine) was 11.4 ± 4 %ID. The tissue uptake dose at 24 h (liver and intestine, sc, 0.3 MBq, s.c., one day after injection, read-out: hepatobiliary elimination, maximum) was 30 ± 3 %ID, the SUV at 5 min [13] was 1.02 ± 0.53 SUV and the tissue uptake dose at 5 min [14] was 4.6 ± 2.22 %ID. It also gave an SUV at 1 h (liver, iv, 0.3 MBq, i.v., mean ± SD, n=8, read-out: Liver SUV) of 1.24 ± 0.31 SUV, a tissue uptake dose at 1 h (liver, iv, 0.3 MBq, i.v., mean ± SD, n=8, read-out: Liver activity amount) of 5.43 ± 1.44 %ID and an SUV at 4 h (liver, iv, 0.3 MBq, i.v., 240 min p.i., mean ± SD, n=4, read-out: Liver SUV) of 1.78 ± 0.45 SUV. For the same molecule, the tissue uptake dose at 4 h (liver, iv, 0.3 MBq, i.v., 240 min p.i., mean ± SD, n=4, read-out: Liver activity amount) was 7.01 ± 1.47 %ID, the SUV at 24 h (liver, iv, 0.3 MBq, i.v., 1440 min p.i., mean ± SD, n=8, read-out: Liver SUV) was 2.93 ± 0.78 SUV and the tissue uptake dose at 24 h (liver, iv, 0.3 MBq, i.v., 1440 min p.i., mean ± SD, n=8, read-out: Liver activity amount) was 14.8 ± 2.42 %ID. The SUV at 48 h [13] was 1.45 ± 0.13 SUV, the tissue uptake dose at 48 h [14] was 8.35 ± 0.95 %ID and the SUV at 1 h [15] was 1.13 ± 0.23 SUV. It also gave a tissue uptake dose at 1 h (liver, sc, 0.3 MBq, s.c., mean ± SD, n=4, read-out: Liver activity amount) of 4.44 ± 0.74 %ID, an SUV at 4 h (liver, sc, 0.3 MBq, s.c., 240 min p.i., mean ± SD, n=4, read-out: Liver SUV) of 1.75 ± 0.63 SUV and a tissue uptake dose at 4 h (liver, sc, 0.3 MBq, s.c., 240 min p.i., mean ± SD, n=4, read-out: Liver activity amount) of 6.79 ± 2.27 %ID. For the same molecule, the SUV at 24 h (liver, sc, 0.3 MBq, s.c., 1440 min p.i., mean ± SD, n=4, read-out: Liver SUV) was 2.23 ± 0.32 SUV, the tissue uptake dose at 24 h (liver, sc, 0.3 MBq, s.c., 1440 min p.i., mean ± SD, n=4, read-out: Liver activity amount) was 11.1 ± 1.82 %ID and the SUV at 48 h [15] was 1.4 ± 0.08 SUV.
